Results reported in paper PMC12363165 (2025).

B1: Vpu with LgBiT fused to its C-terminus (pBiT1.1-C-vpu) [HIV-1] / RBM10 fused to SmBiT (pBiT2.1-C-rbm10) [human] (parent complex)
chain 1: MQPIQIAIAALVVAIIIAIVVWSIVIIEYRKILRQRKIDRLIDRLIERAEDSGNESEGEISALVEMGVEMGHHAPWDIDDL
chain 2: MEYERRGGRGDRTGRYGATDRSQDDGGENRSRDHDYRDMDYRSYPREYGSQEGKHDYDDSSEEQSAEDSYEASPGSETQRRRRRRHRHSPTGPPGFPRDGDYRDQDYRTEQGEEEEEEEDEEEEEKASNIVMLRMLPQAATEDDIRGQLQSHGVQAREVRLMRNKSSGQSRGFAFVEFSHLQDATRWMEANQHSLNILGQKVSMHYSDPKPKINEDWLCNKCGVQNFKRREKCFKCGVPKSEAEQKLPLGTRLDQQTLPLGGRELSQGLLPLPQPYQAQGVLASQALSQGSEPSSENANDTIILRNLNPHSTMDSILGALAPYAVLSSSNVRVIKDKQTQLNRGFAFIQLSTIVEAAQLLQILQALHPPLTIDGKTINVEFAKGSKRDMASNEGSRISAASVASTAIAAAQWAISQASQGGEGTWATSEEPPVDYSYYQQDEGYGNSQGTESSLYAHGYLKGTKGPGITGTKGDPTGAGPEASLEPGADSVSMQAFSRAQPGAAPGIYQQSAEASSSQGTAANSQSYTIMSPAVLKSELQSPTHPSSALPPATSPTAQESYSQYPVPDVSTYQYDETSGYYYDPQTGLYYDPNSQYYYNAQSQQYLYWDGERRTYVPALEQSADGHKETGAPSKEGKEKKEKHKTKTAQQIAKDMERWARSLNKQKENFKNSFQPISSLRDDERRESATADAGYAILEKKGALAERQHTSMDLPKLASDDRPSPPRGLVAAYSGESDSEEEQERGGPEREEKLTDWQKLACLLCRRQFPSKEALIRHQQLSGLHKQNLEIHRRAHLSENELEALEKNDMEQMKYRDRAAERREKYGIPEPPEPKRRKYGGISTASVDFEQPTRDGLGSDNIGSRMLQAMGWKEGSGLGRKKQGIVTPIEAQTRVRGSGLGARGSSYGVTSTESYKETLHKTMVTRFNEAQ

Variants of: B1
Test: NanoBiT luciferase complementation reporter assay; HEK293T cells, co-transfection, read after 2 days; parent: 1; read off a plot

| Variant | ratio to parent |
| --- | --- |
| chain 1 V25A | ~0.41 |
| chain 1 R34A | ~0.63 |
| chain 1 D77A | ~0.6 |
| chain 1 I26A | ~0.56 |
| chain 1 H73A | ~0.98 |
